The subject of this experiment is Hsp72–DnaJB4 complex. Description: Luciferase refolding by Hsp72/DnaJB4 in the presence of TPR cochaperones. To be noted: 1 μM Hsp72, 100 nM denatured luciferase, 120 nM DnaJB4; CHIP titration or 10 μM TPR protein; 1 h at 37 °C. The class given is biochemical. On the procedure: Experiments were performed as described ([14]). Briefly, Renilla luciferase (Promega) was denatured in 8 M GdnHCl for 2 h at room temperature. Hsp72 (1 μM) and denatured luciferase (100 nM) were diluted into a working concentration in buffer containing an ATP regenerating system (23 mM Hepes, 120 mM KAc, 1.2 mM MgAc, 15 mM DTT, 61 mM creatine phosphate, 35 units/ml creatine kinase, and 5 ng/μl bovine serum albumin, pH 7.4). A titration series of DnaJB4 was added, and the reaction was initiated with the addition of 2.5 mM ATP. For competition assays with DnaJB4, complexes of Hsp72 (1 μM), denatured luciferase (100 nM), and DnaJB4 (120 nM) were incubated with either a titration of CHIP or 10 μM of indicated TPR protein. In all cases, the assay was allowed to incubate for 1 h at 37 °C in white, 96-well flat-bottom plates (Corning 3990). Luminescence was measured using the SteadyGlo luminescence reagent (Promega), and percent refolded luciferase was calculated using a standard curve of 100 to 0 nM native luciferase.

B1: DnaJC7: TPR cochaperone that also contains a J-domain (protein, UniProt Q99615 2-494, looked up)
DnaJ homolog subfamily C …: AAAAECDVVMAATEPELLDDQEAKREAETFKEQGNAYYAKKDYNEAYNYYTKAIDMCPKNASYYGNRAATLMMLGRFREALGDAQQSVRLDDSFVRGHLREGKCHLSLGNAMAACRSFQRALELDHKNAQAQQEFKNANAVMEYEKIAETDFEKRDFRKVVFCMDRALEFAPACHRFKILKAECLAMLGRYPEAQSVASDILRMDSTNADALYVRGLCLYYEDCIEKAVQFFVQALRMAPDHEKACIACRNAKALKAKKEDGNKAFKEGNYKLAYELYTEALGIDPNNIKTNAKLYCNRGTVNSKLRKLDDAIEDCTNAVKLDDTYIKAYLRRAQCYMDTEQYEEAVRDYEKVYQTEKTKEHKQLLKNAQLELKKSKRKDYYKILGVDKNASEDEIKKAYRKRALMHHPDRHSGASAEVQKEEEKKFKEVGEAFTILSDPKKKTRYDSGQDLDEEGMNMGDFDPNNIFKAFFGGPGGFSFEASGPGNFFFQFG
B1: the “effect on client (luciferase) refolding by Hsp72–DnaJB4” value is listed as “strongly promoted luciferase refolding”.

(Values after article PMC8913300, “Two distinct classes of cochaperones compete for the EEVD motif in heat shock protein 70 to tune its chaperone activities” (The Journal of Biological Chemistry, 2022).)
